Laboratory results reported in patent US9605283B2, “Microorganism modified for the production of 1,3-propanediol” (INSTITUT NATIONAL DES SCIENCES APPLIQUÉES, priority 2012, dated 2017).

Columns and labels:
Format in all cases: biochemical
[1] = Lactate dehydrogenase activity (natural substrate); settings: for Max. specific activity, Natural substrate: natural substrate (L)-lactate, Table 2
[2] = DHB dehydrogenase activity of membrane-associated enzyme (DHB-dependent reduction of DCIP)
Protocol: Activity of the membrane-associated DHB dehydrogenase (Ec-LldD) was assayed by following the DHB-dependent reduction of 2,6-dichloroindophenol (DCIP). (L)-2,4-dihydroxybutyrate+DCIPox→2-oxo-4-hydroxybutyrate+DCIPred Reaction scheme 2:
Reactions were started by adding 20 mM (L)-2,4-dihydroxybutyrate (Rhodia).

[3] = DHB dehydrogenase activity of cytosolic enzymes (DHB-dependent reduction of NAD+)
Protocol: Activity of the cytosolic DHB dehydrogenases (Ec-Mdh, Bs-Mdh, Ll-LdhA) was assayed by following the DHB-dependent reduction of NAD^+.
The reaction mixture contained 60 mM Hepes (pH 8), 50 mM potassium chloride, 5 mM MgCl2, 10 mM NAD, (optionally, 5 mM fructose-1,6-bisphosphate (F16bP)) (all products from Sigma), and appropriate amounts of purified enzyme or cell extract. Reactions were started by adding 50 mM (L)-2,4-dihydroxybutyrate (Rhodia).
All enzymatic assays were carried out at 37° C. in 96-well flat bottomed microtiter plates in a final volume of 250 μL. The reactions were followed by the characteristic absorption of NADH at 340 nm (εNADH=6.22 mM^−1 cm^−1) or the absorbtion of DCIP at 655 nm (εDCIP=5.9 mM^−1 cm^−1) in a microplate reader (BioRad 680XR).

[4] = OHB decarboxylase activity (coupled to YqhD, NADPH); settings: for OHB decarboxylase activity (in words): wild-type enzymes; for Effect of mutation on activity and/or specificity for OHB (in words): versus wild-type enzyme
Protocol: OHB decarboxylase activity was assayed by coupling the decarboxylase activity to the NADPH-dependent reduction of the released 3-hydroxypropanal by purified aldehyde reductase, YqhD, from E. coli. The decarboxylation of pyruvate was coupled to the NADH-dependent reduction of acetaldehyde catalysed by yeast alcohol dehydrogenase. Branched-chain alpha-ketoacid decarboxylase activity was measured on 4-methyl-2-oxovaleric acid by coupling to the NADH-dependent reduction of 3-methylbutanal catalysed by horse liver alcohol dehydrogenase. […] Reactions were started by adding 20 mM 2-oxo-4-hydroxybutyrate (OHB), 10 mM 4-methyl-2-oxovaleric acid (MOV), or 5 mM pyruvate.

[5] = Pyruvate decarboxylase activity (coupled to yeast alcohol dehydrogenase)
Protocol: OHB decarboxylase activity was assayed by coupling the decarboxylase activity to the NADPH-dependent reduction of the released 3-hydroxypropanal by purified aldehyde reductase, YqhD, from E. coli. The decarboxylation of pyruvate was coupled to the NADH-dependent reduction of acetaldehyde catalysed by yeast alcohol dehydrogenase. Branched-chain alpha-ketoacid decarboxylase activity was measured on 4-methyl-2-oxovaleric acid by coupling to the NADH-dependent reduction of 3-methylbutanal catalysed by horse liver alcohol dehydrogenase. […]

[6] = when not saturated, activity estimated at 20 mM substrate, Table 8
[7] = natural substrate pyruvate, Table 8
[8] = activity measured at 20 mM OHB, Table 10
[9] = activity measured at 50 mM pyruvate (Pdc mutants), Table 10

B1: Ec-LldD: membrane associated (L)-lactate dehydrogenase of E. coli, SEQ ID No. 122 (protein, listed as Escherichia coli)
chain: MIISAASDYRAAAQRILPPFLFHYMDGGAYSEYTLRRNVEDLSEVALRQRILKNMSDLSLETTLFNEKLSMPVALAPVGLCGMYARRGEVQAAKAADAHGIPFTLSTVSVCPIEEVAPAIKRPMWFQLYVLRDRGFMRNALERAKAAGCSTLVFTVDMPTPGARYRDAHSGMSGPNAAMRRYLQAVTHPQWAWDVGLNGRPHDLGNISAYLGKPTGLEDYIGWLGNNFDPSISWKDLEWIRDFWDGPMVIKGILDPEDARDAVRFGADGIVVSNHGGRQLDGVLSSARALPAIADAVKGDIAILADSGIRNGLDVVRMIALGADTVLLGRAFLYALATAGQAGVANLLNLIEKEMKVAMTLTGAKSISEITQDSLVQGLGKELPAALAPMAKGNAA
[1]; E. coli LldD, Table 6
  Max. specific activity, lactate: 6.22 µmol/mg/min
[1]
  Max. specific activity, Natural substrate: 6.22 µmol/mg/min
[2]; (Vmax/Km)DHB/(Vmax/Km)nat. substrate, natural substrate lactate
  Specificity: 0.006
[2]; DCIP assay, Table 2
  Max. specific activity, DHB: 0.37 µmol/mg/min
[2]; E. coli LldD, Table 6
  Max. specific activity, DHB: 0.37 µmol/mg/min
[2]; membrane-associated enzyme
  DHB dehydrogenase activity (in words): have DHB dehydrogenase activity

B2: Ll-LdhA: (L)-lactate dehydrogenase of Lactococcus lactis, cytosolic, SEQ ID No. 120 (protein, listed as Lactococcus lactis)
chain: MADKQRKKVILVGDGAVGSSYAFALVNQGIAQELGIVDLFKEKTQGDAEDLSHALAFTSPKKIYSADYSDASDADLVVLTSGAPQKPGETRLDLVEKNLRITKDVVTKIVASGFKGIFLVAANPVDILTYATWKFSGFPKNRVVGSGTSLDTARFRQALAEKVDVDARSIHAYIMGEHGDSEFAVWSHANVAGVKLEQWFQENDYLNEAEIVELFESVRDAAYSIIAKKGATFYGVAVALARITKAILDDEHAVLPVSVFQDGQYGVSDCYLGQPAVVGAEGVVNPIHIPLNDAEMQKMEASGAQLKAIIDEAFAKEEFASAVKN
[1]
  Max. specific activity, Natural substrate: 8.8 µmol/mg/min
[3]; cytosolic wild-type enzymes
  DHB dehydrogenase activity (in words): have DHB dehydrogenase activity
[3]; when not saturated, activity estimated at 50 mM substrate, Table 2
  Max. specific activity, DHB: 1 µmol/mg/min

B3: Sc-Pdc1: pyruvate decarboxylase of Saccharomyces cerevisiae, SEQ ID No. 208 (protein, listed as Saccharomyces cerevisiae)
chain: MSEITLGKYLFERLKQVNVNTVFGLPGDFNLSLLDKIYEVEGMRWAGNANELNAAYAADGYARIKGMSCIITTFGVGELSALNGIAGSYAEHVGVLHVVGVPSISAQAKQLLLHHTLGNGDFTVFHRMSANISETTAMITDIATAPAEIDRCIRTTYVTQRPVYLGLPANLVDLNVPAKLLQTPIDMSLKPNDAESEKEVIDTILALVKDAKNPVILADACCSRHDVKAETKKLIDLTQFPAFVTPMGKGSIDEQHPRYGGVYVGTLSKPEVKEAVESADLILSVGALLSDFNTGSFSYSYKTKNIVEFHSDHMKIRNATFPGVQMKFVLQKLLTTIADAAKGYKPVAVPARTPANAAVPASTPLKQEWMWNQLGNFLQEGDVVIAETGTSAFGINQTTFPNNTYGISQVLWGSIGFTTGATLGAAFAAEEIDPKKRVILFIGDGSLQLTVQEISTMIRWGLKPYLFVLNNDGYTIEKLIHGPKAQYNEIQGWDHLSLLPTFGAKDYETHRVATTGEWDKLTQDKSFNDNSKIRMIEIMLPVFDAPQNLVEQAKLTAATNAKQ
[4]; [6]
  Max. specific activity, OHB: 0.055 µmol/mg/min
[4]
  OHB decarboxylase activity (in words): significant OHB decarboxylase activity
[5]; [7]
  Max. specific activity, Natural substrate: 1.3 µmol/mg/min

B4: Zm-Pdc: pyruvate decarboxylase of Zymomonas mobilis, SEQ ID No. 128 (protein, listed as Zymomonas mobilis)
chain: MSYTVGTYLAERLVQIGLKHHFAVAGDYNLVLLDNLLLNKNMEQVYCCNELNCGFSAEGYARAKGAAAAVVTYSVGALSAFDAIGGAYAENLPVILISGAPNNNDHAAGHVLHHALGKTDYHYQLEMAKNITAAAEAIYTPEEAPAKIDHVIKTALREKKPVYLEIACNIASMPCAAPGPASALFNDEASDEASLNAAVEETLKFIANRDKVAVLVGSKLRAAGAEEAAVKFADALGGAVATMAAAKSFFPEENPHYIGTSWGEVSYPGVEKTMKEADAVIALAPVFNDYSTTGWTDIPDPKKLVLAEPRSVVVNGIRFPSVHLKDYLTRLAQKVSKKTGALDFFKSLNAGELKKAAPADPSAPLVNAEIARQVEALLTPNTTVIAETGDSWFNAQRMKLPNGARVEYEMQWGHIGWSVPAAFGYAVGAPERRNILMVGDGSFQLTAQEVAQMVRLKLPVIIFLINNYGYTIEVMIHDGPYNNIKNWDYAGLMEVFNGNGGYDSGAGKGLKAKTGGELAEAIKVALANTDGPTLIECFIGREDCTEELVKWGKRVAAANSRKPVNKLL
[4]; [6]
  Max. specific activity, OHB: 0.052 µmol/mg/min
[4]
  OHB decarboxylase activity (in words): significant OHB decarboxylase activity
[5]; [7]
  Max. specific activity, Natural substrate: 65 µmol/mg/min

B5: Zm-Pdc G413N: Z. mobilis pyruvate decarboxylase mutant G413N, SEQ ID No. 194 (protein, listed as Zymomonas mobilis)
chain: MSYTVGTYLAERLVQIGLKHHFAVAGDYNLVLLDNLLLNKNMEQVYCCNELNCGFSAEGYARAKGAAAAVVTYSVGALSAFDAIGGAYAENLPVILISGAPNNNDHAAGHVLHHALGKTDYHYQLEMAKNITAAAEAIYTPEEAPAKIDHVIKTALREKKPVYLEIACNIASMPCAAPGPASALFNDEASDEASLNAAVEETLKFIANRDKVAVLVGSKLRAAGAEEAAVKFADALGGAVATMAAAKSFFPEENPHYIGTSWGEVSYPGVEKTMKEADAVIALAPVFNDYSTTGWTDIPDPKKLVLAEPRSVVVNGIRFPSVHLKDYLTRLAQKVSKKTGALDFFKSLNAGELKKAAPADPSAPLVNAEIARQVEALLTPNTTVIAETGDSWFNAQRMKLPNGARVEYEMQWNHIGWSVPAAFGYAVGAPERRNILMVGDGSFQLTAQEVAQMVRLKLPVIIFLINNYGYTIEVMIHDGPYNNIKNWDYAGLMEVFNGNGGYDSGAGKGLKAKTGGELAEAIKVALANTDGPTLIECFIGREDCTEELVKWGKRVAAANSRKPVNKLL
[4]; [8]
  Max. specific activity, OHB: 0.04 µmol/mg/min
[4]
  Effect of mutation on activity and/or specificity for OHB (in words): increased activity and/or specificity for OHB
[5]; [9]
  Max. specific activity, Natural substrate: 0.1 µmol/mg/min

B6: Zm-Pdc W392L: Z. mobilis pyruvate decarboxylase mutant W392L, SEQ ID No. 192 (protein, listed as Zymomonas mobilis)
chain: MSYTVGTYLAERLVQIGLKHHFAVAGDYNLVLLDNLLLNKNMEQVYCCNELNCGFSAEGYARAKGAAAAVVTYSVGALSAFDAIGGAYAENLPVILISGAPNNNDHAAGHVLHHALGKTDYHYQLEMAKNITAAAEAIYTPEEAPAKIDHVIKTALREKKPVYLEIACNIASMPCAAPGPASALFNDEASDEASLNAAVEETLKFIANRDKVAVLVGSKLRAAGAEEAAVKFADALGGAVATMAAAKSFFPEENPHYIGTSWGEVSYPGVEKTMKEADAVIALAPVFNDYSTTGWTDIPDPKKLVLAEPRSVVVNGIRFPSVHLKDYLTRLAQKVSKKTGALDFFKSLNAGELKKAAPADPSAPLVNAEIARQVEALLTPNTTVIAETGDSLFNAQRMKLPNGARVEYEMQWGHIGWSVPAAFGYAVGAPERRNILMVGDGSFQLTAQEVAQMVRLKLPVIIFLINNYGYTIEVMIHDGPYNNIKNWDYAGLMEVFNGNGGYDSGAGKGLKAKTGGELAEAIKVALANTDGPTLIECFIGREDCTEELVKWGKRVAAANSRKPVNKLL
[4]; [8]
  Max. specific activity, OHB: 0.04 µmol/mg/min
[4]
  Effect of mutation on activity and/or specificity for OHB (in words): increased activity and/or specificity for OHB
[5]; [9]
  Max. specific activity, Natural substrate: 0.09 µmol/mg/min

B7: Zm-Pdc W392Q: Z. mobilis pyruvate decarboxylase mutant W392Q, SEQ ID No. 190 (protein, listed as Zymomonas mobilis)
chain: MSYTVGTYLAERLVQIGLKHHFAVAGDYNLVLLDNLLLNKNMEQVYCCNELNCGFSAEGYARAKGAAAAVVTYSVGALSAFDAIGGAYAENLPVILISGAPNNNDHAAGHVLHHALGKTDYHYQLEMAKNITAAAEAIYTPEEAPAKIDHVIKTALREKKPVYLEIACNIASMPCAAPGPASALFNDEASDEASLNAAVEETLKFIANRDKVAVLVGSKLRAAGAEEAAVKFADALGGAVATMAAAKSFFPEENPHYIGTSWGEVSYPGVEKTMKEADAVIALAPVFNDYSTTGWTDIPDPKKLVLAEPRSVVVNGIRFPSVHLKDYLTRLAQKVSKKTGALDFFKSLNAGELKKAAPADPSAPLVNAEIARQVEALLTPNTTVIAETGDSQFNAQRMKLPNGARVEYEMQWGHIGWSVPAAFGYAVGAPERRNILMVGDGSFQLTAQEVAQMVRLKLPVIIFLINNYGYTIEVMIHDGPYNNIKNWDYAGLMEVFNGNGGYDSGAGKGLKAKTGGELAEAIKVALANTDGPTLIECFIGREDCTEELVKWGKRVAAANSRKPVNKLL
[4]; [8]
  Max. specific activity, OHB: 0.19 µmol/mg/min
[4]
  Effect of mutation on activity and/or specificity for OHB (in words): increased activity and/or specificity for OHB
[5]; [9]
  Max. specific activity, Natural substrate: 1.39 µmol/mg/min
